According to patent US20060115482A1, “Modifications of histone proteins as indicators of cell proliferation and differentiation” (The Regents of the University of California, priority 2004, published 2006):

Experiments:
H2B-S33 = assay: In vitro kinase assay (γ32P-ATP, SDS-PAGE, autoradiography, scintillation counting); assay type: biochemical, Drosophila; settings: for H2B phosphorylation in vitro (qualitative): autoradiography; for Turnover values for phosphorylation of H2B-S33: 3 μg enzyme
Procedure: Kinase reactions were programmed with 1 μg RAP74, 1 μg recombinant histone, 2 μg polynucleosomes, 2 μg histone octamers, or 300 ng histone peptide, and contained 400 ng endogenous TFIID or 250 ng recombinant TAF1 derivatives and 0.25 μCi γ^32P-ATP. Reactions were performed in 20 μl kinase buffer (25 mM Hepes (pH 7.6), 10% glycerol, and 400 mM NaCl) for 25 min at 25° C. Reaction products were analyzed by SDS-PAGE using 8%—(for recombinant proteins), 15%—(for histones), or 18% (for peptides) gels. After electrophoresis, gels were dried and exposed to X-ray film.
To quantify kinase reactions, reactions products were separated by SDS-PAGE and detected by coomassie blue staining. Radiolabeled H2B was detected by autoradiography, excised from the gel, and analyzed by scintillation counting.
To measure the kinase activity of TFIID, TAF1, CTK, and mutant CTK-derivatives, reaction products of in vitro kinase assays were separated by SDS-PAGE and stained with coomassie blue. Radiolabeled H2B, H2BT and controls were excised from the gel and incorporation of radioactivity was determined by scintillation counting. Turnover values for phosphorylation of H2B-S33 were determined by measuring incorporation of radiolabeled phosphate groups into H2B in the presence of 3 μg TAF1, TFIID, or CTK-derivatives and 3 μg H2B or 12 μg nucleosomes. The turnover values were: TFIID (nucleosomes: 3.3/sec; H2B: 2.6/sec); TAF1: (nucleosomes: 2.5/sec; H2B: 2.5/sec); CTK: (nucleosomes: 2.6/sec; H2B: 4.4/sec).

acetylated H4 = target: T1, acetylated H4 (Homo sapiens, UniProt P62805); assay: Acetylated-lysine interaction assay; assay type: binding; settings: H4 peptide acetylated at lysine 5, 8, 12, 16
T1 construct: H4 peptide (amino acids 1-20); host or cells: H4 peptide made by chemical synthesis; Flag-CTK proteins made in Sf9 cells with baculovirus
Procedure: FIG. 6. (A) Silver stained gel corresponding to the autoradiograms shown inn FIG. 2B) of in vitro kinase assays containing γ^32P-ATP, native nucleosomes (top) or recombinant H2B (bottom), and TFIID, TAF1, or TAF1 derivatives (B) CTK(D1548A) binds acetylated histone H4. Western blot of protein:protein interaction assays. Anti-Flag antibody agarose beads loaded with recombinant Flag-CTK, Flag-CTK(D1548), or FLAG-110 (beads) were incubated with H4 peptide (amino acids 1-20) or H4 peptide [acetyl(H4)] acetylated at lysine 5, 8, 12, 16. Precipitated peptides were separated by SDS-PAGE, electrophoretically transferred onto nitrocellulose, and detected using antibodies to H4 (top) and acetylated H4 (bottom). (C) The CTK phosphorylates serine residues in H2BT. A schematic representation of H2BT is shown on top with highlighted positions of threonines (T) and serines (S). […]
The interaction of CTK and CTK(D1548A) with unmodified and acetylated H4 peptides was monitored as described (14, 15). […]

B1: CTK: COOH-terminal kinase domain of Drosophila TAF1, amino acids 1496-2132 (protein)
chain: LFPVSAKKVPDYYRVVTKPMDLQTMREYIRQRRYTSREMFLEDLKQIVDNSLIYNGPQSAYTLAAQRMFSSCFELLAEREDKLMRLEKAINPLLDDDDQVALSFIFDKLHSQIKQLPESWPFLKPVNKKQVKDYYTVIKRPMDLETIGKNIEAHRYHSRAEYLADIELIATNCEQYNGSDTRYTKFSKKILEYAQTQLIEFSEHCGQLENNIAKTQERARENAPEFDEAWGNDDYNFDRGSRASSPGDDYIDVEGHGGHASSSNSIHRSMGAEAGSSHTAPAVRKPAPPGPGEVKRGRGRPRKQRDPVEEVKSQNPVKRGRGRPRKDSLASNMSHTQAYFLDEDLQCSTDDEDDDEEEDFQEVSEDENNAASILDQGERINAPADAMDGMFDPKNIKTEIDLEAHQMAEEPIGEDDSQQVAEAMVQLSGVGGYYAQQQQDESMDVDPNYDPSDFLAMHKQRQSLGEPSSLQGAFTNFLSHEQDDNGPYNPAEASTSAASGADLGMDASMAMQMAPEMPVNTMNNGMGIDDDLDISESDEEDDGSRVRIKKEVFDDGDYALQHQQMGQAASQSQIYMVDSSNEPTTLDYQQPPQLDFQQVQEMEQLQHQVMPPMQSEQLQQQQTPQGDNDYAWTF
H2B-S33
  H2B phosphorylation in vitro (qualitative): strongly phosphorylated H2B
H2B-S33; substrate 3 μg H2B
  Turnover values for phosphorylation of H2B-S33: 4.4 s⁻¹
H2B-S33; substrate 12 μg nucleosomes
  Turnover values for phosphorylation of H2B-S33: 2.6 s⁻¹

B2: CTK(D1538A): CTK with catalytically important aspartic acid of the S/T-kinase motif mutated to alanine (protein)
chain: LFPVSAKKVPDYYRVVTKPMDLQTMREYIRQRRYTSREMFLEALKQIVDNSLIYNGPQSAYTLAAQRMFSSCFELLAEREDKLMRLEKAINPLLDDDDQVALSFIFDKLHSQIKQLPESWPFLKPVNKKQVKDYYTVIKRPMDLETIGKNIEAHRYHSRAEYLADIELIATNCEQYNGSDTRYTKFSKKILEYAQTQLIEFSEHCGQLENNIAKTQERARENAPEFDEAWGNDDYNFDRGSRASSPGDDYIDVEGHGGHASSSNSIHRSMGAEAGSSHTAPAVRKPAPPGPGEVKRGRGRPRKQRDPVEEVKSQNPVKRGRGRPRKDSLASNMSHTQAYFLDEDLQCSTDDEDDDEEEDFQEVSEDENNAASILDQGERINAPADAMDGMFDPKNIKTEIDLEAHQMAEEPIGEDDSQQVAEAMVQLSGVGGYYAQQQQDESMDVDPNYDPSDFLAMHKQRQSLGEPSSLQGAFTNFLSHEQDDNGPYNPAEASTSAASGADLGMDASMAMQMAPEMPVNTMNNGMGIDDDLDISESDEEDDGSRVRIKKEVFDDGDYALQHQQMGQAASQSQIYMVDSSNEPTTLDYQQPPQLDFQQVQEMEQLQHQVMPPMQSEQLQQQQTPQGDNDYAWTF
Acetylated H4
  binding to acetylated H4 in vitro: retains the ability to bind acetylated H4 in vitro
H2B-S33
  H2B phosphorylation in vitro (qualitative): weak autophosphorylation and H2B trans-phosporylation activities
